{"source": "patent US11180560B2", "about": "“Compositions and methods to treat solid tumors” (Wayne State University, priority 2015, dated 2021)", "molecules": {"B1": {"name": "Abciximab (antibody, chains of the INN, looked up, V domains shown)", "VH": "EVQLQQSGTVLARPGASVKMSCEASGYTFTNYWMHWVKQRPGQGLEWIGAIYPGNSDTSYIQKFKGKAKLTAVTSTTSVYMELSSLTNEDSAVYYCTLYDGYYVFAYWGQGTLVTVSA", "VL": "EIVLTQSPVTLSVTPGDSVSLSCRASRDISNNLHWFQQTSHESPRLLIKYASQSMSGIPSRFSGSGSGTDFTLSINSVETEDFGMYFCQQTNSWPYTFGGGTKLEIK", "modifications": "Fab"}}, "key": {"[1]": {"tested_on": "sensitive EOC cell lines, their Taxotere or Cisplatin resistant counterparts and colon, endometrial, lung, prostate, bladder, hepatocellular cancer cell lines", "assay": "TACS MTT cell viability, Abciximab in cancer versus non-cancer cells", "type": "cell-based, human", "conditions": "increasing doses of Abciximab; cancer cells compared to non-cancer cells; FIG. 1A", "description": "FIGS. 1A-1E. Anti-cancer effects of Abciximab and NIF. (FIG. 1A) Anti-cancer effects of Abciximab in sensitive EOC cell lines (A2780, MDAH-2774, SKOV-3, OV90, TOV21G, OV112D, OV433, and HTB-161) and their Taxotere or Cisplatin resistant counterparts, human macrophages, and other cancer cell lines including colon (HTB-37), endometrial (CRL-1671), lung (CCL-257), prostate (CRL-1740), bladder (HTB-4), and hepatocellular (HB-8065) cancers, in vitro. (FIG. 1B) The combined effect of Abciximab alone or in combination with Cisplatin in both sensitive A2780 and their (FIG. 1C) Cisplatin resistant counterpart in vitro. […] (FIG. 1E) Anti-cancer effects of NIF in both sensitive A2780 and their Cisplatin resistant counterpart in vitro.\nCell viability was determined using the TACS MTT Cell Proliferation Assay (Trevigen, Gaithersburg, Md.) per the manufacturer's protocol. Briefly, measurement of cell proliferation is based upon the reduction of the tetrazolium salt, 3,[4,5-dimethytthiazol-2-yl]-2,5-diphenyl-tetrazolium bromide (MTT). MTT is reduced to an insoluble formazan dye by mitochondrial enzymes associated with metabolic activity of living cells. […] Absorbance was measured at 570 nm. […] A standard curve was constructed utilizing the OD readings correlating with each standard point and was utilized to determine cell number in the test samples. […]"}, "[2]": {"tested_on": "A2780 sensitive and cisplatin resistant EOC cells", "assay": "TACS MTT cell viability in A2780 cells", "type": "cell-based, human", "conditions": "Abciximab combined with cisplatin, CI<1 indicates synergism, FIGS. 1B-1D", "method": "FIGS. 3A-3E. Cell viability in A2780 sensitive and cisplatin resistant EOC cells after treatment with integrin αV and integrin β1 antibody. (FIG. 3A) A2780 chemosensitive and (FIG. 3B) cisplatin resistant EOC cells were treated with or without integrin αV and integrin β1 antibody alone or in combination and viability was assessed using the TACS MTT Cell Proliferation Assay.\nFIGS. 4A and 4B. Integrin αV and integrin β1 antibodies cross-react with a potential soluble target in EOC cell media. To test whether media collected from A2780 EOC cells contains a target that cross-reacts with the integrin αV or integrin β1 monoclonal antibodies, cells were cultured for 48 hours followed by removal of media. Either mouse anti-integrin αV or mouse anti-integrin β1 antibody was incubated with the conditioned cell culture media for 24 hours to block the antibody with the unknown target. […]\nCell viability was determined using the TACS MTT Cell Proliferation Assay (Trevigen, Gaithersburg, Md.) per the manufacturer's protocol. […] Absorbance was measured at 570 nm. […] A standard curve was constructed utilizing the OD readings correlating with each standard point and was utilized to determine cell number in the test samples.\nCell Viability was Determined Using the TACS MTT Cell Proliferation Assay (Trevigen, Gaithersburg, Md.) per the manufacturer's protocol. […]"}}}
{"molecule": "B1", "values": [{"measurement": "anti-cancer activity (cell viability)", "setting": "[1]", "value": "significant"}, {"measurement": "effect of combination with cisplatin", "setting": "[2]", "value": "synergistic effect"}]}
